3 molecules from patent US20220009996A1 (NORTHWESTERN UNIVERSITY, published 2022) can be followed below.

One may read the Kd as the free concentration of one partner at which half of the binding sites on the other are occupied at equilibrium, for simple one-to-one binding.

Assay [1] has as its target T1, Recombinant Human VCAM-1/CD106 Fc chimera protein (R&D Systems) (human, UniProt P19320 25-698).
T1 construct: Bought from R&D Systems; also called VCAM-1 protein; not shown: Fc part (and any linker or His tag) of the bought chimera is not described
T1 sequence (looked up): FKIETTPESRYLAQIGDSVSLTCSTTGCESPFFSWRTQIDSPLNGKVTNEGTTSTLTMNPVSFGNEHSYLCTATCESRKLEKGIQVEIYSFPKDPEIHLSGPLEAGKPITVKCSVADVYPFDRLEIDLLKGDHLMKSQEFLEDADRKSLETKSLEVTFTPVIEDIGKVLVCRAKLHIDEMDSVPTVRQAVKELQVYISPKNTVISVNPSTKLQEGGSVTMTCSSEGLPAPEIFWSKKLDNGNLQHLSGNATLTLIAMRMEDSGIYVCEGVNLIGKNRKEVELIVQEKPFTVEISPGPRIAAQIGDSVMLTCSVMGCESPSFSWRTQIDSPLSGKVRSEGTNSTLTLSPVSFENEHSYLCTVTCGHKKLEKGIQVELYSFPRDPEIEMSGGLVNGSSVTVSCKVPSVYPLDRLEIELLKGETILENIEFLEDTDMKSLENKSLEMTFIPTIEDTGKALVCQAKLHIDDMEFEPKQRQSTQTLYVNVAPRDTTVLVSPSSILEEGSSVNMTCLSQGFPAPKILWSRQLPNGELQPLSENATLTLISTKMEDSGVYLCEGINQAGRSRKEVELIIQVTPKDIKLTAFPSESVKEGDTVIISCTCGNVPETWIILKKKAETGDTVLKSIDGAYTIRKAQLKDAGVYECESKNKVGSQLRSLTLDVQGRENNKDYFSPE
Nature of the assay: BLI (BLItz), VCAM-1 Fc chimera immobilized on Anti-Penta-HIS biosensor, serial dilutions of PA nanofibers.

Assay [2] has as its target T1, Recombinant Human VCAM-1/CD106 Fc …. Put plainly: bio-layer interferometry (BLItz): VCAM-1 Fc chimera immobilised on an Anti-Penta-HIS biosensor, PA nanofibers in DPBS as analyte, 300 s association and 300 s dissociation.

B1: VCAM-1 binding PA (C16V3A3E3GSGVHPKQH) nanofibers (peptide)
peptide: VVVAAAEEEGSGVHPKQH
HELM: PEPTIDE1{[CCCCCCCCCCCCCCCC(=O)[*:2]].V.V.V.A.A.A.E.E.E.G.S.G.V.H.P.K.Q.H.[am]}$$$$V2.0
SMILES: CCCCCCCCCCCCCCCC(=O)N[C@H](C(=O)N[C@H](C(=O)N[C@H](C(=O)N[C@@H](C)C(=O)N[C@@H](C)C(=O)N[C@@H](C)C(=O)N[C@@H](CCC(=O)O)C(=O)N[C@@H](CCC(=O)O)C(=O)N[C@@H](CCC(=O)O)C(=O)NCC(=O)N[C@@H](CO)C(=O)NCC(=O)N[C@H](C(=O)N[C@@H](Cc1c[nH]cn1)C(=O)N1CCC[C@H]1C(=O)N[C@@H](CCCCN)C(=O)N[C@@H](CCC(N)=O)C(=O)N[C@@H](Cc1c[nH]cn1)C(N)=O)C(C)C)C(C)C)C(C)C)C(C)C
notes: Peptide amphiphile, self-assembled into supramolecular nanofibers after annealing; tested as nanofibers, so the number of copies in one assembly is not defined; In the microfluidic assay it stood as a coating on lymphocytes; also called VCAMb PA; VCAM-1 targeting PA
Consider B1, for which the Kd in assay [1] came out at 280 nM.

B2: backbone PA (C16V3A3E3) nanofibers (peptide)
peptide: VVVAAAEEE
HELM: PEPTIDE1{[CCCCCCCCCCCCCCCC(=O)[*:2]].V.V.V.A.A.A.E.E.E.[am]}$$$$V2.0
SMILES: CCCCCCCCCCCCCCCC(=O)N[C@H](C(=O)N[C@H](C(=O)N[C@H](C(=O)N[C@@H](C)C(=O)N[C@@H](C)C(=O)N[C@@H](C)C(=O)N[C@@H](CCC(=O)O)C(=O)N[C@@H](CCC(=O)O)C(=O)N[C@@H](CCC(=O)O)C(N)=O)C(C)C)C(C)C)C(C)C
notes: Peptide amphiphile without targeting moiety, self-assembled into nanofibers; also called filler PA; non-bioactive backbone PA
As to B2, in assay [2], the binding result was “no binding (tested: 100 µM)”.

B3: VCAMb-scr PA (C16V3A3E3GSGQHPHVK) nanofibers (peptide)
peptide: VVVAAAEEEGSGQHPHVK
HELM: PEPTIDE1{[CCCCCCCCCCCCCCCC(=O)[*:2]].V.V.V.A.A.A.E.E.E.G.S.G.Q.H.P.H.V.K.[am]}$$$$V2.0
SMILES: CCCCCCCCCCCCCCCC(=O)N[C@H](C(=O)N[C@H](C(=O)N[C@H](C(=O)N[C@@H](C)C(=O)N[C@@H](C)C(=O)N[C@@H](C)C(=O)N[C@@H](CCC(=O)O)C(=O)N[C@@H](CCC(=O)O)C(=O)N[C@@H](CCC(=O)O)C(=O)NCC(=O)N[C@@H](CO)C(=O)NCC(=O)N[C@@H](CCC(N)=O)C(=O)N[C@@H](Cc1c[nH]cn1)C(=O)N1CCC[C@H]1C(=O)N[C@@H](Cc1c[nH]cn1)C(=O)N[C@H](C(=O)N[C@@H](CCCCN)C(N)=O)C(C)C)C(C)C)C(C)C)C(C)C
notes: formed relatively short, closely packed fibers; also called scrambled control PA
Turning to B3, in assay [2], the binding result is reported as “no binding (tested: 100 µM)”.
